Reference: patent US9599605 (BOSTON MEDICAL CENTER, dated 2017)

Columns and labels:
[1] = target: Endogenous mouse STIM1 (mouse) (UniProt P70302); experiment: cell-based or functional assay
[2] = target: T1, Endogenous STIM1 from extracts of Jurkat T lymphocytes (human, UniProt Q13586 23-685); experiment: pull-down on SNAP-immobilized bait, Western blot
T1 construct: Prey protein in a cell lysate, detected by Western blot
Experimental: (§1) A: with full-sized original images of immunoblots (B and C).
(§2) The cells were harvested 48 h after transfection, lysed on ice in lysis buffer (25 mM Tris-HCl, pH 7.5, 150 mM NaCl, 0.5% NP-40, 5% glycerol, 2 mM DTT, 1×HALT Protease inhibitors cocktail (Pierce), 1 mM PMSF) and the extracts were cleared by centrifugation for 15 min at 16,000 g at 4° C. Each SNAP-tagged protein was covalently immobilized by incubating ~800 µL of the extract with 25 µL bed volume of SNAP Capture Resin (New England Biolabs), equilibrated with Resin Wash Buffer (RWB; 25 mM Tris-HCl, pH 7.5, 150 mM NaCl, 5% glycerol), for 16 h at 6° C. Control sample of each extract was incubated under the same conditions in the absence of the resin. Following immobilization, the resin was collected in the mini spin column (Pierce), washed 5 times on ice with 600 µL of RWB, combined with the prey protein extract, and incubated with orbital mixing at ~600-800 rpm for 6 h at 4° C.

[3] = target: T2, Overexpressed ^YFPSTIM1 from extracts of FreeStyle 293-F cells (UniProt Q13586 23-685); experiment: pull-down on SNAP-immobilized bait, Western blot
T2 construct: not shown: YFP of the YFPSTIM1 construct (gift from Dr. T. Meyer)
Experimental: as §1, §2

T1 sequence (Q13586 23-685 limits assumed): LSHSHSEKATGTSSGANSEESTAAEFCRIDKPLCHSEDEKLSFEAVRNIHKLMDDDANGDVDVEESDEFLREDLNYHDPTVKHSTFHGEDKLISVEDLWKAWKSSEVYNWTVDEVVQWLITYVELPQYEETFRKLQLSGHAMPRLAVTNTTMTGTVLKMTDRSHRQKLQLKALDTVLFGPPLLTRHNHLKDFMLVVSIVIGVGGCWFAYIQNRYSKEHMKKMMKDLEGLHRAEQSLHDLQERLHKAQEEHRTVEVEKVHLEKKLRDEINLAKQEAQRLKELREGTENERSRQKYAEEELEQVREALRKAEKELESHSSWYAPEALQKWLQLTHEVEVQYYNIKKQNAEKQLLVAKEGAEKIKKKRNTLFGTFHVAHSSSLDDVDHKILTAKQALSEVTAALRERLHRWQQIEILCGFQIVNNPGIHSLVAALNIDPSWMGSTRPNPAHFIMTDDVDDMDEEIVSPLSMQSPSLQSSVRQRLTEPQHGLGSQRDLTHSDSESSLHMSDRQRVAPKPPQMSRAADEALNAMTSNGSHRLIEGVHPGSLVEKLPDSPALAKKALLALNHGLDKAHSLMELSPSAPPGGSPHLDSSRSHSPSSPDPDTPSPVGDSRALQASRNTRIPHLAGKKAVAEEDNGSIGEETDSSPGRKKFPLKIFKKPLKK
T2 sequence (Q13586 23-685): as the sequence (Q13586 23-685 limits assumed) above
Chain of Endogenous mouse STIM1 (mouse) (P70302 23-685 limits assumed): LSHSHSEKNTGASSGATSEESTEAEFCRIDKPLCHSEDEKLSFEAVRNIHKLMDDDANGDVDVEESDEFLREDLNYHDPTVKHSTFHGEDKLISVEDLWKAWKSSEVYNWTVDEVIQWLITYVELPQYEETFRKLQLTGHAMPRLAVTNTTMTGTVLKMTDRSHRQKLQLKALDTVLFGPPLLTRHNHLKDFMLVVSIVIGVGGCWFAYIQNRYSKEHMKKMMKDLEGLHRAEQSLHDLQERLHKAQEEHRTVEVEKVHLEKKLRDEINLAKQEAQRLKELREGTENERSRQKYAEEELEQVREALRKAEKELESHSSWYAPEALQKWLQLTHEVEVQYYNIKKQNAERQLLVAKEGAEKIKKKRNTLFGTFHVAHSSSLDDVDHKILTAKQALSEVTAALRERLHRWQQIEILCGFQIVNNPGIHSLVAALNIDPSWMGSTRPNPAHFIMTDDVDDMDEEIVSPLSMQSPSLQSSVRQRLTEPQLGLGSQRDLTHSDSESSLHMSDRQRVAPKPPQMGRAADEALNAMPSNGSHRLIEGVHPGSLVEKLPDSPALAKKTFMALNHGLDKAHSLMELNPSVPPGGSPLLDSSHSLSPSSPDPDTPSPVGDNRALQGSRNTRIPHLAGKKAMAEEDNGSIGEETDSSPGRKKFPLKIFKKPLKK

peak of Ca^2+ release caused by ionomycin in MEFs from KO^Ex2 mice compared to WT [1] [%] | binding result [2] | binding result [3] | Molecule
60 |  |  | N-terminally truncated endogenous mouse PLA2g6(L) of KO^Ex2 mice (from UniProt P97819 179-807) (enzyme)
 | no binding | no binding | C-terminally SNAP-tagged N-terminally truncated human PLA2g6(L)^179-806 (enzyme, covalently immobilized on SNAP Capture Resin through the SNAP tag ; Covalently immobilised on SNAP Capture Resin through the C-terminal SNAP tag, which is not in the letters, Mimics the N-terminally truncated protein expected in KO^Ex2 mice; not shown: C-terminal SNAP tag and the vector linker of pSNAP-tag(m) (New England Biolabs)) MDVTDYKGETVFHYAVQGDNSQVLQLLGRNAVAGLNQVNNQGLTPLHLACQLGKQEMVRVLLLCNARCNIMGPNGYPIHSAMKFSQKGCAEMIISMDSSQIHSKDPRYGASPLHWAKNAEMARMLLKRGCNVNSTSSAGNTALHVAVMRNRFDCAIVLLTHGANADARGEHGNTPLHLAMSKDNVEMIKALIVFGAEVDTPNDFGETPTFLASKIGRLVTRKAILTLLRTVGAEYCFPPIHGVPAEQGSAAPHHPFSLERAQPPPISLNNLELQDLMHISRARKPAFILGSMRDEKRTHDHLLCLDGGGVKGLIIIQLLIAIEKASGVATKDLFDWVAGTSTGGILALAILHSKSMAYMRGMYFRMKDEVFRGSRPYESGPLEEFLKREFGEHTKMTDVRKPKVMLTGTLSDRQPAELHLFRNYDAPETVREPRFNQNVNLRPPAQPSDQLVWRAARSSGAAPTYFRPNGRFLDGGLLANNPTLDAMTEIHEYNQDLIRKGQANKVKKLSIVVSLGTGRSPQVPVTCVDVFRPSNPWELAKTVFGAKELGKMVVDCCTDPDGRAVDRARAWCEMVGIQYFRLNPQLGTDIMLDEVSDTVLVNALWETEVYIYEHREEFQKLIQLLLSP
